Laboratory results: the supplement of paper PMC10567573

B1: CD207 (parent)
chain: MTVEKEAPDAHFTVDKQNISLWPR
B2: TRIB1 (parent)
chain: SYVRSRKRLREEEAARLFKQIVSA

Variants of: B1
Experiment: protein stability index of a GFP-peptide fusion (GPS, HEK-293T) (PSI 1-6); higher = more stable
Settings: c terminus: a fixed tail appended
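Further: lentivirally expressed fusions sorted by FACS into six bins by GFP to DsRed ratio, PSI derived from sequencing read proportions per bin multiplied by bin number.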

Protein stability index: each site, then its substitutions
Q17: E 3.26 | F 1.89 | G 3.38 | H 3.05 | I 2.48 | K 3.36 | L 2.64 | M 2.15 | N 2.97 | P 3.21 | R 2.76 | S 2.31 | T 3.14 | V 2.39 | W 1.56 | Y 1.94
N18: A 4.24 | C 2.44 | D 3.21 | E 3.34 | F 3 | G 3 | H 3.46 | I 1.95 | K 3.4 | L 2.88 | M 3.5 | P 3.39 | Q 2.86 | R 3.14 | S 3.56 | T 3.62 | V 2.29 | W 2.05 | Y 2.97
I19: A 4.25 | C 3.76 | D 4.22 | E 4.47 | F 4.08 | G 3.13 | H 4.29 | K 4.35 | L 3.35 | M 3.67 | N 4.39 | P 4 | Q 3.84 | R 3.99 | S 3.45 | T 3.79 | V 3.98 | Y 3.41
S20: A 3.3 | C 3.39 | D 4.04 | E 3.33 | F 3.04 | G 3.29 | H 3.2 | I 2.66 | K 3.55 | L 2.48 | M 2.81 | N 3.07 | P 3.3 | Q 3.1 | R 3.3 | T 3.43 | V 2.71 | W 2.96 | Y 2.69
L21: C 3.64 | D 4.22 | F 3.25 | H 4.06 | I 3.79 | K 3.72 | M 3.81 | N 3.43 | P 4.11 | Q 3.85 | R 3.7 | S 3.53 | T 3.01 | V 3.09 | W 3.12 | Y 3.39
W22: A 4.63 | C 4.08 | D 4.85 | E 5.08 | F 3.91 | G 4.35 | H 4.21 | I 4.73 | K 4.99 | L 4.42 | M 4.19 | N 4.4 | P 4.64 | Q 4.29 | R 4.1 | S 4.69 | T 4.34 | V 4.32 | Y 3.83
P23: A 3.39 | C 2.69 | D 4.51 | E 3.84 | F 2.71 | G 3 | H 2.9 | I 2.91 | K 3.69 | L 2.62 | M 2.84 | N 3.82 | Q 3.14 | R 3.43 | S 2.64 | T 2.93 | W 2.52 | Y 2.62
R24: A 3.98 | C 3.16 | D 4.53 | E 4.83 | F 3.42 | G 3.72 | H 3.69 | I 2.9 | K 3.87 | L 2.95 | M 2.24 | N 4.12 | P 3.28 | Q 3.97 | S 3.57 | T 3.63 | V 3.07 | W 2.78 | Y 2.83

Variants of: B2
Experiment: as above
Settings: c terminus: a fixed tail appended

Protein stability index: each site, then its substitutions
S1: A 2.07 | D 1.88 | E 1.5 | F 1.45 | K 2.98 | M 1.82 | N 2.2 | P 2.1 | Q 1.58 | R 1.95 | V 1.65 | Y 1.41
Y2: A 2.5 | F 1.54 | G 1.83 | H 2.58 | I 1.78 | K 2.14 | M 2.91 | N 2.83 | Q 2.48 | R 2.17 | S 1.9 | T 2.38 | V 2.33 | W 1.25
V3: A 1.68 | C 1.71 | D 2.05 | E 1.83 | F 2.64 | G 1.3 | H 1.22 | I 1.69 | K 1.99 | L 2.08 | M 1.58 | N 2.08 | R 2.63 | S 2.36 | T 2.12 | W 1.61 | Y 1.98
R4: A 1.41 | C 1.7 | D 2.44 | E 2.76 | F 1.22 | H 2.56 | I 1.57 | L 2.35 | M 2.12 | N 2.76 | P 1.77 | Q 2.09 | S 1.87 | T 1.8 | V 2.28 | W 1.29 | Y 2.11
S5: A 1.76 | C 1.62 | D 2.24 | E 1.39 | F 2.4 | G 3.13 | H 1.94 | I 1.73 | K 2.31 | L 2.5 | M 1.92 | N 2.12 | P 2.27 | T 2.21 | Y 2.65
R6: A 1.89 | C 1.85 | D 2.99 | F 1.42 | G 1.72 | H 2.33 | I 2 | K 2.63 | L 1.85 | M 1.54 | N 1.81 | P 2.66 | Q 1.88 | S 2.21 | T 2.07 | V 1.95 | W 1.97 | Y 2.23
K7: A 2.06 | C 2.34 | D 3.05 | E 2.5 | F 2.12 | G 2.99 | H 1.58 | I 1.86 | M 2.38 | N 2.15 | P 2.03 | Q 2.02 | R 2.11 | S 2.53 | T 2.52 | W 1.62 | Y 1.93
R8: A 2.3 | C 2.05 | D 1.78 | E 3.2 | F 1.48 | H 1.96 | I 2.3 | K 2.49 | L 2.03 | M 1.58 | N 2.6 | P 2.09 | Q 2.38 | S 1.99 | V 2.37 | W 1.95 | Y 1.99
L9: A 1.91 | C 1.5 | D 2.47 | F 1.68 | H 2.24 | I 3.23 | K 2.25 | M 3.22 | P 1.86 | Q 2.3 | R 2.07 | S 2.44 | T 2.24 | V 1.75 | W 2.56 | Y 2
R10: A 2.94 | C 1.5 | D 2.28 | E 2.27 | F 2.04 | G 3.19 | H 2.63 | I 1.83 | K 3.08 | L 2.23 | M 1.35 | N 2.54 | P 2.28 | Q 2.22 | S 2.34 | T 2.67 | V 1.69 | W 2.12 | Y 1.95
E11: A 2.05 | D 2.17 | F 3.54 | G 1.33 | H 2.41 | I 1.4 | K 2.25 | M 1.66 | N 2.13 | P 1.85 | Q 1.9 | R 1.54 | S 2.69 | T 2.44 | V 1.75 | W 2.05 | Y 1.22
E12: A 2.16 | C 1.76 | D 1.9 | H 3.01 | I 2.65 | K 2.27 | L 2 | M 2.48 | N 2.61 | P 2.03 | Q 1.98
